Test results taken from the supplement of paper PMC12764529.
± gives the half width of the 95% confidence interval.

Columns and labels:
[1] = folding stability dG unfold (combined trypsin and chymotrypsin); higher = more stable
Outline: (§1)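 Unfolding free energy was derived, per protease or combined, against a sequence-predicted unfolded-state K50 and a shared folded-state K50, starting from K50 inferred by Bayesian fitting of sequencing counts. Digestion with trypsin and chymotrypsin was carried out on designed mini-proteins under 80 residues without cysteine in a PA-tagged cDNA display construct. Only designs with AlphaFold2 dimer inter-PAE above 15 were kept.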

[2] = folding stability dG unfold from trypsin proteolysis; higher = more stable
Outline: as §1

[3] = folding stability dG unfold from chymotrypsin proteolysis; higher = more stable
Outline: as §1

| Sequence | folding stability dG unfold [1] | folding stability dG unfold [2] | folding stability dG unfold [3] |
| --- | --- | --- | --- |
| SAGGSAGGSAGKKTYKLVIPVKPDKTVEEIAEEVKKLLGPGSKVEVEEKEDGFATVYVESSAGGSAGGSAGG [r17_20_TrMRF] | 0.555 ± 0.097 kcal/mol | 0.292 ± 0.04 kcal/mol | 0.656 ± 0.093 kcal/mol |
| SAGGSAGGSAGKKYKVVEVKENKDGTVELVVENENGEKKKITLSKEELDKLKAGDTVELKSAGGSAGGSAGG [r11_943_TrROS_Hall] | 2.47 ± 0.14 kcal/mol | 2.01 ± 0.11 kcal/mol | 2.7 ± 0.057 kcal/mol |
| SAGGSAGGSAGKLRYRYRFDTVLLEVTYDPSTGEVVEVKVIPLSPLPPLTPEELYRLLEDSAGGSAGGSAGG [r11_320_TrMRF] | 2.82 ± 0.056 kcal/mol | 2.25 ± 0.053 kcal/mol | 3.071 ± 0.018 kcal/mol |
| SAGGSAGGSAGKMYKLTIEKDGKEIEIIVSEDELKEIAKKLGLPPNAKIKVEKVSPEELKSAGGSAGGSAGG [r17_395_TrROS_Hall] | 3.27 ± 0.17 kcal/mol | 2.21 ± 0.095 kcal/mol | 3.8 ± 0.14 kcal/mol |
| SAGGSAGGSAGKPIIKVKIIEKKDGYLKIEIEDEKTGETKTITLKPGQKLEIKLELVKEPSAGGSAGGSAGG [r11_738_TrROS_Hall] | 1.62 ± 0.11 kcal/mol | 1.92 ± 0.15 kcal/mol | 1.33 ± 0.064 kcal/mol |
| SAGGSAGGSAGKPITADEVAERVARRLRELFGPDYDINVKVVKVLPGDYVLVDVEITGDLSAGGSAGGSAGG [r11_153_TrMRF] | 2.28 ± 0.044 kcal/mol | 2.27 ± 0.032 kcal/mol | 2.287 ± 0.021 kcal/mol |
| SAGGSAGGSAGKPTLKLVLKFDSPEQAKAAAEALAKAGYKVKVELKEYPDGLYLVVTVEPSAGGSAGGSAGG [r11_677_TrROS_Hall] | 4.2 ± 0.2 kcal/mol | 3.29 ± 0.12 kcal/mol | 4.41 ± 0.13 kcal/mol |
| SAGGSAGGSAGKTIVLKTPEAIKNLKEGDVIKLKDGKKYKIVKVEYDKETNYFTIEIEKESAGGSAGGSAGG [r11_316_TrROS_Hall] | 3.54 ± 0.17 kcal/mol | 2.96 ± 0.13 kcal/mol | 3.75 ± 0.17 kcal/mol |
| SAGGSAGGSAGKTVQIWIPPDEITPEALKSLAREGWKIKPIEIRRNPEDGWISITIELKPSAGGSAGGSAGG [r11_345_TrROS] | 0.619 ± 0.25 kcal/mol | 0.597 ± 0.076 kcal/mol | 0.451 ± 0.36 kcal/mol |
| SAGGSAGGSAGKVIKLEELKKKFPNMSPEELAAFFKKLGYKVEVVKVGDVPYVFLSPGEKSAGGSAGGSAGG [r11_707_TrMRF] | 3.33 ± 0.049 kcal/mol | 2.2 ± 0.065 kcal/mol | 3.676 ± 0.02 kcal/mol |
| SAGGSAGGSAGKVTLTIPFTNEDGTKYIAEFTFDELEVEEDVEIKIVSLGENFDLVLKPESAGGSAGGSAGG [r11_733_TrMRF] | 1.63 ± 0.1 kcal/mol | 1.47 ± 0.069 kcal/mol | 1.67 ± 0.041 kcal/mol |
| SAGGSAGGSAGKVVLAKAKVTPPDGSEYEFDLAIEVPDDVVLVVGLHFDYPDQVDFVFEGSAGGSAGGSAGG [r11_781_TrMRF] | 1.2 ± 0.072 kcal/mol | 1.28 ± 0.03 kcal/mol | 1.14 ± 0.017 kcal/mol |
| SAGGSAGGSAGKVVLYLPGDGTAWVLKVGDGEAVLEAEPEKVEELLEKIPGTEAVPVPGLSAGGSAGGSAGG [r11_57_TrMRF] | 0.425 ± 0.12 kcal/mol | 0.652 ± 0.026 kcal/mol | -0.0929 ± 0.23 kcal/mol |
| SAGGSAGGSAGKVVVDFGKPALAEAFGVPLSEIENMSEEEALALAKPLVEEGVVDEVVLSSAGGSAGGSAGG [r11_80_TrMRF] | 0.88 ± 0.099 kcal/mol | 1.26 ± 0.048 kcal/mol | 0.524 ± 0.042 kcal/mol |
| SAGGSAGGSAGKYEVTKIEVVKNEDGSEYLRVTIKVDGKEITITIPLEDAENIKIEIKPPSAGGSAGGSAGG [r17_64_TrROS_Hall] | 3.38 ± 0.12 kcal/mol | 2.69 ± 0.086 kcal/mol | 3.59 ± 0.036 kcal/mol |
| SAGGSAGGSAGLELTVGDVPVDVYVDPDTERALAYFPLFNRVAIVDLPTGKVYVVPLDDILSAGGSAGGSAG [r3_137_TrMRF] | 1.15 ± 0.076 kcal/mol | 1.25 ± 0.04 kcal/mol | 1.11 ± 0.14 kcal/mol |
| SAGGSAGGSAGLIVTHPDGGVTTLRLTLTFTFEGPVGPPKTVTFEFTLTVAPNGTEVTLESAGGSAGGSAGG [r11_271_TrMRF] | 4.72 ± 0.27 kcal/mol | 3.34 ± 0.16 kcal/mol | 5.11 ± 0.11 kcal/mol |
| SAGGSAGGSAGLKLLEKELRVLTYDPETGSLSESTLRVPVLLVPPVPVPVLDPNGGLTLASAGGSAGGSAGG [r11_307_TrMRF] | 0.143 ± 0.11 kcal/mol | -0.696 ± 0.27 kcal/mol | 0.407 ± 0.14 kcal/mol |

| Sequence | folding stability dG unfold [1] | folding stability dG unfold [2] | folding stability dG unfold [3] |
| --- | --- | --- | --- |
| SAGGSAGGSAGLLPIEELLKKNPEPVTFMVKDNDTLYRIEITPKDGKWTIEIEPLPGMKPSAGGSAGGSAGG [r11_549_TrROS] | 1.2 ± 0.043 kcal/mol | 0.756 ± 0.021 kcal/mol | 1.49 ± 0.077 kcal/mol |
| SAGGSAGGSAGLPPGDKVTISIPIVIPDGYMINSHITIDPDNGETEIEIQIYPLKDPDALSAGGSAGGSAGG [r11_695_TrROS] | 2.11 ± 0.14 kcal/mol | 2.1 ± 0.21 kcal/mol | 2.12 ± 0.11 kcal/mol |
| SAGGSAGGSAGLTLEVELPDGKPFPVEVLEVDPGEEDVVVIRVKVKVGDKEYEVTLVLDLSAGGSAGGSAGG [r17_536_TrMRF] | 1.9 ± 0.15 kcal/mol | 1.94 ± 0.095 kcal/mol | 1.76 ± 0.08 kcal/mol |
| SAGGSAGGSAGMAIGLEEILARLDPERIISVEVDEENPLVTVKLRPPSGETKTITFKLSLSAGGSAGGSAGG [r17_374_JUSTAS] | 1.06 ± 0.07 kcal/mol | 1.21 ± 0.03 kcal/mol | 0.669 ± 0.11 kcal/mol |
| SAGGSAGGSAGMDIDILTETEVTRYPDGTVVTTTTTRDSSGEVLSTTTTTTTVTPATPAASAGGSAGGSAGG [r11_452_JUSTAS] | 2.47 ± 0.069 kcal/mol | 2.24 ± 0.15 kcal/mol | 2.6 ± 0.057 kcal/mol |
| SAGGSAGGSAGMDIPLTFTAPNADGQPVKVRVEKIIPEKGYLLVRVEYPDDREETFLDPFSAGGSAGGSAGG [r11_742_TrMRF] | -0.0666 ± 0.08 kcal/mol | -0.118 ± 0.14 kcal/mol | -0.167 ± 0.13 kcal/mol |
| SAGGSAGGSAGMEFEVLEVIPPELLAEGGEITVGLPDGERLLVRVSPDGGVKEVRLLPPESAGGSAGGSAGG [r17_2_TrMRF] | 0.236 ± 0.16 kcal/mol | 0.811 ± 0.12 kcal/mol | -0.435 ± 0.22 kcal/mol |
| SAGGSAGGSAGMEISTKTLPGDKYELTITLPDSKGTPITVTITFTSEEEAKKKLEEIIKKSAGGSAGGSAGG [r11_819_JUSTAS] | 2.27 ± 0.084 kcal/mol | 1.29 ± 0.068 kcal/mol | 2.7 ± 0.11 kcal/mol |
| SAGGSAGGSAGMEITRDKTPDGVWTVTITVPRPDGPSITVTVTGSPDGDFAPEKIAAVLASAGGSAGGSAGG [r11_759_JUSTAS] | 0.819 ± 0.13 kcal/mol | 1.15 ± 0.038 kcal/mol | 0.078 ± 0.19 kcal/mol |
| SAGGSAGGSAGMELKIKVTLTPPGAPVPLTLELEVESEEEARERLEKEYPDREIELEVLESAGGSAGGSAGG [r17_428_JUSTAS] | 0.143 ± 0.093 kcal/mol | -0.534 ± 0.072 kcal/mol | 0.354 ± 0.088 kcal/mol |
| SAGGSAGGSAGMELTVKVPPDTTPEEVKEKIEKELGLKVKSISVSSFPDGTRTVTITIGPSAGGSAGGSAGG [r17_222_JUSTAS] | 2.45 ± 0.21 kcal/mol | 2.45 ± 0.27 kcal/mol | 2.45 ± 0.14 kcal/mol |
| SAGGSAGGSAGMEPEIYTITTTDSNGNTSSYTFTSTEEVNAFLNDPSFQSSAVSFTVSPTSAGGSAGGSAGG [r11_1047_JUSTAS] | 2.76 ± 0.076 kcal/mol | 2.57 ± 0.053 kcal/mol | 2.88 ± 0.047 kcal/mol |
| SAGGSAGGSAGMEPIRVTVTTQDTATGTTTTTTVTVPTDVPVEAVLAALDPALVTAVTVESAGGSAGGSAGG [r11_386_JUSTAS] | 0.808 ± 0.11 kcal/mol | 1.68 ± 0.061 kcal/mol | -0.172 ± 0.072 kcal/mol |
| SAGGSAGGSAGMETTVLEEVPPEELAKGQTRLEKLPDGTIIERTVAPEGEVVETKTIPPKSAGGSAGGSAGG [r17_2_JUSTAS] | 1.09 ± 0.48 kcal/mol | 1.94 ± 0.21 kcal/mol | 0.421 ± 0.12 kcal/mol |
| SAGGSAGGSAGMFVERTLEITFVRPPNGPGPEEVEKRAKELQEKNPHLNVKVKVVDPSEASAGGSAGGSAGG [r17_220_JUSTAS] | 0.699 ± 0.26 kcal/mol | 0.669 ± 0.086 kcal/mol | 0.795 ± 0.1 kcal/mol |
| SAGGSAGGSAGMIDIKFEKIEGSSEYRATLTRPGGEVVPVLFSSSESAEEAKERAIELLESAGGSAGGSAGG [r17_161_JUSTAS] | 1.15 ± 0.12 kcal/mol | 0.906 ± 0.06 kcal/mol | 1.28 ± 0.11 kcal/mol |
| SAGGSAGGSAGMIKIEETVVLPDGTVVRKEKEIEPPNGKTTTLKTETVPVLSPGSESLLLSAGGSAGGSAGG [r11_919_JUSTAS] | 0.461 ± 0.067 kcal/mol | 0.429 ± 0.041 kcal/mol | 0.313 ± 0.074 kcal/mol |
| SAGGSAGGSAGMIVAKVVEYDPETGEITIEVDGKKITLPLKNMKIKEVNGYLVIEFKEDDSAGGSAGGSAGG [r17_403_TrROS_Hall] | 3.25 ± 0.072 kcal/mol | 2.89 ± 0.11 kcal/mol | 3.43 ± 0.082 kcal/mol |
